Assay results reported in patent US20180009859A1, “PHARMACOLOGICAL MODULATORS OF GABAA RECEPTORS AND THEIR USE” (priority 2015, published 2018).
Positions count from the first letter of the chain named. Like-named read-outs stand apart in the source and are kept apart here.

What was measured:
GABAA receptors in SPMs [1] = format: binding, rat; conditions: for displacing ^125I-rMmTX2 (in words): SPMs; for Ki: read-out: equilibrium inhibition constant (Ki)
GABAA receptors in SPMs [2] = assay: [^3H]muscimol competition for binding to SPMs; parameters: species or system rat
hippocampal neurons [3] = assay: Calcium imaging of hippocampal neurons (Ca^2+ oscillations); format: cell-based, rat; conditions: 0.3 μM muscimol alone, n=9
[4] = test system: GABAA receptors of hippocampal neurons; format: cell-based, mouse
[5] = biological target: GABAA receptors of hippocampal neurons; conditions: reported values; cited from earlier work
[6] = biological target: GABAA receptors in rat brain synaptic plasma membranes (SPMs) (rat); assay: ratio of the kinetic constants, radioligand binding to rat brain SPMs
[7] = biological target: GABAA receptors in rat brain synaptic plasma membranes (SPMs) (rat)
[8] = biological target: GABAA receptors in rat brain synaptic plasma membranes (SPMs) (rat); remark: listed apart in the source
[9] = biological target: GABAA receptors in rat brain synaptic plasma membranes (SPMs) (rat); remark: listed apart in the source
hippocampal neurons [10] = format: cell-based, mouse; conditions: 100 μM PTX, n=5
[11] = biological target: GABAA receptors of mouse hippocampal neurons (mouse); assay: cell-based or functional assay
[12] = biological target: GABAA receptors in rat brain synaptic plasma membranes (SPMs) (rat); assay: competition with 125I-rMmTX2 for rat brain SPMs
[13] = biological target: GABAA receptors in rat brain synaptic plasma membranes (SPMs) (rat); assay: competition with 40 nM [3H]muscimol for rat brain SPMs
[14] = biological target: GABAA receptors in rat brain synaptic plasma membranes (SPMs) (rat); assay: competition with 40 nM [3H]muscimol for rat brain SPMs, nonlinear fit for an allosteric modulator
mice [15] = conditions: injection into mouse brain
mice [16] = conditions: for activity when injected intravenously: mouse, in vivo
GABAA receptors in SPMs [17] = format: binding, rat
α1β2γ2 GABAA receptor = α1β2γ2 GABAA receptor (Rattus norvegicus, UniProt P62813+P63138); format: cell-based
Sequence of α1β2γ2 GABAA receptor (P63138 25-474): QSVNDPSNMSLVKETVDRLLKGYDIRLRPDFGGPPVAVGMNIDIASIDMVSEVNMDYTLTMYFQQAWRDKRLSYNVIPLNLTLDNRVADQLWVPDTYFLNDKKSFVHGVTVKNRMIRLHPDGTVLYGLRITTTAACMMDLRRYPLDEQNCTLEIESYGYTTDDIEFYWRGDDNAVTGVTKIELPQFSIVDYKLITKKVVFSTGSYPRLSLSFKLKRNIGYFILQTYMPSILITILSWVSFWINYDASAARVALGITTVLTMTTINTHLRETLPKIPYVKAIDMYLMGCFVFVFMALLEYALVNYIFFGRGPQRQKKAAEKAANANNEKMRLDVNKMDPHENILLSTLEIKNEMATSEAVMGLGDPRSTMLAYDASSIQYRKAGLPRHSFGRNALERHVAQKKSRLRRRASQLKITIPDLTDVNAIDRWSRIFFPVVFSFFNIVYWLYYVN
Sequence of α1β2γ2 GABAA receptor (P62813 28-455): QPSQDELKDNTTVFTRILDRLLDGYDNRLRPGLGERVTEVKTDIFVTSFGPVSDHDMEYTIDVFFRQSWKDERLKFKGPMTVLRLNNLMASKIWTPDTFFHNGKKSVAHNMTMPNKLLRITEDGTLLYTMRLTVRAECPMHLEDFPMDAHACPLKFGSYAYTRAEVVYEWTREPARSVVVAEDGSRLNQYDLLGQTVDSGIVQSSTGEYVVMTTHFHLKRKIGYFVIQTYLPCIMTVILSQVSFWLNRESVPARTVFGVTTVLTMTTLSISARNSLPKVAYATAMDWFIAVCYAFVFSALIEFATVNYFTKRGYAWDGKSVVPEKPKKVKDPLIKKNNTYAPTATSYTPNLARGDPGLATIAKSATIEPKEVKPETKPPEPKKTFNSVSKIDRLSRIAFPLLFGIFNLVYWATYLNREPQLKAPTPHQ
Sequence of α1β2γ2 GABAA receptor (P18508 39-466, further chain): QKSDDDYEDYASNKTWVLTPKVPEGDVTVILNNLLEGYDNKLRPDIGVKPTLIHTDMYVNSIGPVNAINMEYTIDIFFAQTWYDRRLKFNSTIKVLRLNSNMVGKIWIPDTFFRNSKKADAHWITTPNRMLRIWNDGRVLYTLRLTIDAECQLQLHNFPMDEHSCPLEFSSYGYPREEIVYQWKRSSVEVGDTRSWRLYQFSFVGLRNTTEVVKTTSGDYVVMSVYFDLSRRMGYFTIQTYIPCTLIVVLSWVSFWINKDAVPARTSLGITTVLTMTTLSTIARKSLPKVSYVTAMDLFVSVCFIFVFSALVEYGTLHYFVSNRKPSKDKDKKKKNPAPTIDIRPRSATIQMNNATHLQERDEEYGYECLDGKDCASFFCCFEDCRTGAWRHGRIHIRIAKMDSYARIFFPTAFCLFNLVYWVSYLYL

[18] = read-out: EC50 for reducing ^125I-MmTX2 binding to SPMs
[19] = sigmoidal dose-response fit, read-out: EC50 for reducing ^125I-MmTX2 binding to SPMs

## NCCCC(=O)O [GABA, γ-aminobutyric acid]
GABAA receptors in SPMs [1]
  nH (Hill slope) for reducing ^125I-MmTX2 binding: 0.99±0.18

## NCc1cc(=O)[nH]o1 [[^3H]muscimol, reference compound]
GABAA receptors in SPMs [2]; SPMs, read-out: Kd of [^3H]muscimol (constrained fit parameter)
  Kd: 1.75 nM

## CN1[C@@H]2CC[C@H]1C[C@@H](OC(=O)C(CO)c1ccccc1)C2 (stereo partly shown) [atropine]
GABAA receptors in SPMs [1]
  competition with ^125I-rMmTX2 for binding to SPMs: does not compete

## COc1cc2c3cc1Oc1cc(ccc1O)C[C@@H]1c4c(cc(OC)c(O)c4Oc4ccc(cc4)C[C@@H]3N(C)CC2)CC[N+]1(C)C [d-tubocurarine]
GABAA receptors in SPMs [1]; ligand 10 μM
  competition with ^125I-rMmTX2 for binding to SPMs: no competition is observed

## CN1C(=O)CN=C(c2ccccc2)c2cc(Cl)ccc21 [diazepam]
GABAA receptors in SPMs [1]
  nH (Hill slope) for reducing ^125I-MmTX2 binding: −0.96±0.07
GABAA receptors in SPMs [1]; [18]
  EC50: 4900 nM

## COc1ccc(-c2ccc(=N)n(CCCC(=O)O)n2)cc1 [gabazine]
GABAA receptors in SPMs [1]
  nH (Hill slope) for reducing ^125I-MmTX2 binding: 1.00±0.07
GABAA receptors in SPMs [1]; [18]
  EC50: 200 nM

## N[C@@H](CCC(=O)O)C(=O)O [glutamate]
GABAA receptors in SPMs [1]; ligand 0.1 mM
  competition with ^125I-rMmTX2 for binding to SPMs: does not compete

## NCC(=O)O [glycine]
GABAA receptors in SPMs [1]
  competition with ^125I-rMmTX2 for binding to SPMs: does not compete

## O=C(O)C1=CCNCC1 [isoguvacine]
GABAA receptors in SPMs [1]
  nH (Hill slope) for reducing ^125I-MmTX2 binding: 1.02±0.29
GABAA receptors in SPMs [1]; [19]
  EC50: 275000 nM

## NCc1cc(=O)[nH]o1 [muscimol, reference compound]
Hippocampal neurons [3]
  frequency of Ca^2+ spikes compared to cells perfused with extracellular saline solution: 98.0±4.8%
GABAA receptors in SPMs [1]
  nH (Hill slope) for reducing ^125I-MmTX2 binding: 1.08±0.24
GABAA receptors in SPMs [1]; [19]
  EC50: 2100 nM
[4]; 100 nM rMmTX1, read-out: IC50 of muscimol for abolishing the potentiating effect of rMmTX1
  IC50: 1100 nM
[4]; muscimol alone
  nH coefficient of GABAA receptor current amplitude: 1.4
[4]; muscimol alone, Hill fit, read-out: EC50 of GABAA receptor current amplitude
  EC50: 4100 nM
[5]
  EC50: 5400 to 24000 nM

## CCCC(C)C1(CC)C(=O)NC(=O)NC1=O (stereo not shown) [pentobarbital]
GABAA receptors in SPMs [1]
  nH (Hill slope) for reducing ^125I-MmTX2 binding: 0.98±0.07
GABAA receptors in SPMs [1]; [19]
  EC50: 4800 nM

## ^125I-rMmTX2 (peptide)
[6]
  Kd: 0.38 nM
[7]
  t1/2 of dissociation: 7.97 min
[8]
  Bmax (fmol/mg of SPM protein): 532
  Kd: 0.76 nM
  ratio of Bmax with/without PTX: 2.01
[9]
  Bmax (fmol/mg of synaptic protein): 264
  Kd: 0.51 nM
  half time duration of dissociation: 8 min
  koff: 0.0014 s⁻¹
  kon: 3.7e+06 M⁻¹ s⁻¹

## cardiotoxin [CTX]
GABAA receptors in SPMs [1]; ligand 10 μM
  competition with ^125I-rMmTX2 for binding to SPMs: does not displace

## picrotoxin [PTX]
GABAA receptors in SPMs [1]
  nH for potentiating ^125I-MmTX2 binding capacity: +1.05±1.16
GABAA receptors in SPMs [1]; read-out: EC50 for potentiating ^125I-MmTX2 binding capacity to SPMs
  EC50: 3700 nM
Hippocampal neurons [10]
  action potential frequency: increases more dramatically when compared to sMmTX1

## recombinant MmTX1 (rMmTX1) (peptide)
[11]
  factor of increase of the GABAA current elicited by 5 µM muscimol, with 1 nM rMmTX1: 1.24 fold
  factor of increase of the GABAA current elicited by 5 µM muscimol, with 10 nM rMmTX1: 1.22 fold
[12]
  Ki: 3 nM
  log Ki: -8.52
[13]
  percent of the total [^3H]muscimol binding capacity competed: 40%
[14]
  Kd: 4.9 nM

## recombinant MmTX2 (rMmTX2) (peptide)
[12]
  Ki: 3.7 nM
  log Ki: -8.44

## wild-type (WT) MmTX2, micrurotoxin2 purified from Micrurus mipartitus venom (peptide)
[12]
  Ki: 0.8 nM
  log Ki: -9.09

## α-bungarotoxin
GABAA receptors in SPMs [1]
  competition with ^125I-rMmTX2 for binding to SPMs: no competition is observed

B1: rMmTX1: recombinant MmTX1 from a periplasmic expression system (protein)
peptide: LTCKTCPFTTCPNSESCPGGQSICYQRKWEEHRGERIERRCVANCPAFGSHDTSLLCCTRDNCN
modifications: ends and bridges not checked
GABAA receptors in SPMs [2]; 40 nM [^3H]muscimol
  part of the total [^3H]muscimol binding capacity competed for: about 40%
GABAA receptors in SPMs [2]; 40 nM [^3H]muscimol, allosteric modulator fit, read-out: Kd in competition with [^3H]muscimol
  Kd: 4.9 ± 0.2 nM
Mice [15]
  LD50: 0.027 mg/kg
  behavioral signs: reduced activity combined with severe seizures
GABAA receptors in SPMs [1]
  displacing ^125I-rMmTX2 (in words): equally potent
  Ki: 3 nM
Mice [16]
  activity when injected intravenously: inactive
[4]
  effect on GABAA receptors in the absence of an agonist: no effect
  increase of GABAA receptor-mediated currents: up to 7 fold
[4]; 0.1 μM muscimol + 100 nM rMmTX1
  Factor of GABAA current increase: 7.9 ± 2.9 (n = 2)
[4]; 0.1 μM muscimol together with 100 nM rMmTX1
  Cl^− current: 228±30 pA
[4]; 100 nM rMmTX1
  muscimol concentration at the half-maximal potentiating effect of rMmTX1: about 1 μM
[4]; 0.3 μM muscimol + 100 nM rMmTX1
  Factor of GABAA current increase: 7.5 ± 1.2 (n = 4)
[4]; 0.3 μM muscimol together with 100 nM rMmTX1, neurons without response to muscimol alone
  inward current: 439±51 pA
[4]; 1.0 μM muscimol + 100 nM rMmTX1
  Factor of GABAA current increase: 1.9 ± 0.4 (n = 3)
[4]; 3 μM muscimol + 100 nM rMmTX1
  Factor of GABAA current increase: 1.4 ± 0.1 (n = 6)
[4]; 5 μM muscimol + 1 nM rMmTX1, n=9
  factor of GABAA current amplitude increase: 1.24 ± 0.07
[4]; 5 μM muscimol + 10 nM rMmTX1, n=9
  factor of GABAA current amplitude increase: 1.22 ± 0.03
[4]; 5 μM muscimol + 100 nM rMmTX1, n=9
  factor of GABAA current amplitude increase: 1.99 ± 0.28
[4]; 5 μM muscimol + 300 nM rMmTX1, n=9
  factor of GABAA current amplitude increase: 1.69 ± 0.25
[4]; 30 μM muscimol + 100 nM rMmTX1
  Factor of GABAA current increase: 1.0 ± 0.1 (n = 4)
[4]; 50 μM muscimol + 100 nM rMmTX1
  Factor of GABAA current increase: 1.0 ± 0.1 (n = 3)
[4]; muscimol concentrations greater than 10 μM
  toxin-induced potentiation at high muscimol: do not observe a toxin-induced potentiation

B2: ^125I-rMmTX2: MmTX2 radioactively labeled by lacto-peroxidase-catalyzed iodination (protein)
peptide: B1 peptide with R33H
modifications: ends and bridges not checked; also: 125I iodination (lactoperoxidase-catalysed), site not given here
GABAA receptors in SPMs [17]; 1 to 4 nM ligand, SPMs
  second-order kinetic constant of association (k+1): 3.7±0.5×10^6 M^−1 s^−1
GABAA receptors in SPMs [17]; dissociation after 1000-fold excess of unlabeled rMmTX2
  first-order kinetic constant (k−1): 0.0014 ± 0.0004 s⁻¹
GABAA receptors in SPMs [17]; dissociation from SPMs
  half time duration of dissociation: ~8 min
GABAA receptors in SPMs [17]; in the presence of 1 mM PTX, read-out: Kd with PTX
  Kd: 0.76 ± 0.18 nM
GABAA receptors in SPMs [17]; ratio of both kinetic constants, read-out: true dissociation value (Kd=k−1/k+1)
  Kd: 0.38 ± 0.05 nM
GABAA receptors in SPMs [17]; read-out: Kd (saturation binding at equilibrium)
  Kd: 0.51 ± 0.09 nM

B3: MmTX1 (protein, listed as Micrurus mipartitus)
chain: B1 peptide
modifications: ends and bridges not checked
GABAA receptors in SPMs [1]
  displacing ^125I-rMmTX2 (in words): equally potent

B4: rMmTX2: recombinant MmTX2 from a periplasmic expression system (protein)
peptide: B1 peptide with R33H
modifications: ends and bridges not checked
Mice [15]
  LD50: 0.010 mg/kg
  behavioral signs: reduced activity combined with severe seizures
GABAA receptors in SPMs [1]
  displacing ^125I-rMmTX2 (in words): equally potent
  Ki: 3.7 nM
Mice [16]; injected intravenously into mice
  flaccid paralysis: no flaccid paralysis
Mice [16]
  activity when injected intravenously: inactive

B5: Fas 2: animal toxin that targets AChE (protein, UniProt P0C1Z0 1-61, looked up)
Fasciculin-2: TMCYSHTTTSRAILTNCGENSCYRKSRRHPPKMVLGRGCGCPPGDDNLEVKCCTSPDKCNY
modifications: ends and bridges not checked
GABAA receptors in SPMs [1]; ligand 10 μM
  competition with ^125I-rMmTX2 for binding to SPMs: does not compete

B6: sMmTX1-HRK: sMmTX1 mutated at 4His, 28Arg, 47Lys and acetylated at the N-terminus, SEQ ID NO: 21 (peptide)
chain: Ac-LTCHTCPFTTCPNSESCPGGQSICYQRRWEEHRGERIERRCVANCPKFGSHDTSLLCCTRDNCN
modifications: ends and bridges not checked
α1β2γ2 GABAA receptor; 100 nM muscimol + 100 nM toxin, −70 mV
  effect on α1β2γ2 GABAA receptor currents: currents are potentiated and receptor desensitization tends to accelerate
α1β2γ2 GABAA receptor; 300 nM muscimol
  effect on α1β2γ2 GABAA receptor currents: potentiating effect is diminished whereas desensitization effect is unaltered
